Measurements from article PMC549075.

Target: Lamb brain tubulin (lamb)

B1: HIV-1 Tat protein, Oyi strain (natural protein)
chain: MEPVDPRLEPWKHPGSQPKTASNNCYCKRCCLHCQVCFTKKGLGISYGRKKRRQRRRAPQDSKTHQVSLSKQPASQPRGDPTGPKESKKKVERETETDPED
ΔOD 350 nm plateau of 15 μM tubulin at 37°C with 8 μM compound: 0.8 ΔOD 350 nm | ΔOD ratio (plateau with 8 μM compound divided by plateau of tubulin alone): 2.63
